One test has as its target recombinant human BAFF (human, UniProt Q9Y275 134-285). In words: cell-based or functional assay.
Another test concerns the target T1, recombinant human APRIL (human, UniProt O75888 105-250, limits assumed).
T1 sequence (looked up): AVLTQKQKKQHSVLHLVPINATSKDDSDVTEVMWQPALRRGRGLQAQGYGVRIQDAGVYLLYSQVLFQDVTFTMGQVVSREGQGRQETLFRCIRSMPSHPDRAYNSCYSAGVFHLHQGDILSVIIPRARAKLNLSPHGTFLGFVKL
Briefly: cell-based or functional assay.

B1: BCMA 381 GSG4S-Fc-(G4S)4-CTLA-4 186 (Fc fusion)
chain: LQMAGQCSQNEYFDALLYACIPCQLRCSSNTPPLTCQQYCNASVTNSVKGTNAGSGGGGSEPKSSDKTHTCPPCPAPEAEGAPSVFLFPPKPKDTLMISRTPEVTCVVVDVSHEDPEVKFNWYVDGVEVHNAKTKPREEQYNSTYRVVSVLTVLHQDWLNGKEYKCKVSNKALPAPIEKTISKAKGQPREPQVYTLPPSRDELTKNQVSLTCLVKGFYPSDIAVEWESNGQPENNYKTTPPVLDSDGSFFLYSKLTVDKSRWQQGNVFSCSVMHEALHNHYTQKSLSLSPGGGGGSGGGGSGGGGSGGGGSKAMHVAQPAVVLASSRGIASFVCEYASPWKATEVRVTVLRQADSQVTEVCAATYMMGNELTFLDDSICTGTSSGNQVNLTIQGLRAMDTGLYICKVEQMYPPPYLLGIGNGTQIYVIDPEPCPDSD
Take B1: the “IC50 (nM) BAFF” value in the test with recombinant human BAFF turned out to be 0.0617 nM. Further, the “IC50 (nM) APRIL” value with recombinant human APRIL worked out at 0.876 nM.

B2: BCMA 357 GSG4S Fc (G4S)3 CTLA-4 92 (Fc fusion)
chain: LQMAGQCSQNEYFDSLLYACIPCQLRCSSNTPPLTCQRYCNASVTNSVKGTNAGSGGGGSEPKSSDKTHTCPPCPAPEAEGAPSVFLFPPKPKDTLMISRTPEVTCVVVDVSHEDPEVKFNWYVDGVEVHNAKTKPREEQYNSTYRVVSVLTVLHQDWLNGKEYKCKVSNKALPAPIEKTISKAKGQPREPQVYTLPPSRDELTKNQVSLTCLVKGFYPSDIAVEWESNGQPENNYKTTPPVLDSDGSFFLYSKLTVDKSRWQQGNVFSCSVMHEALHNHYTQKSLSLSPGGGGGSGGGGSGGGGSGGGGSKAMHVAQPAVVLASSRGIASFVCEYASPWKATEVRVTVLRQADSQVTEVCAATYMMGSELTFPDDSICTGTSSGNQVNLTIRGLRAMDTGLYICKVEQMYPPPYLLGIGNGTQIYVIDPEPCPDSD
With B2, in the test with recombinant human BAFF, the “IC50 (nM) BAFF” value stood at 0.415 nM and the “IC50 BAFF (Δ Parental vTD)” value worked out at 0.4 ratio. Moreover, in the test with recombinant human APRIL, the “IC50 (nM) APRIL” value worked out at 0.582 nM and the “IC50 APRIL (Δ Parental vTD)” value is 0.6 ratio.

B3: CTLA-4 92 GSG4S Fc (G4S)5 BCMA 357 (Fc fusion)
chain: KAMHVAQPAVVLASSRGIASFVCEYASPWKATEVRVTVLRQADSQVTEVCAATYMMGSELTFPDDSICTGTSSGNQVNLTIRGLRAMDTGLYICKVEQMYPPPYLLGIGNGTQIYVIDPEPCPDSDGSGGGGSEPKSSDKTHTCPPCPAPEAEGAPSVFLFPPKPKDTLMISRTPEVTCVVVDVSHEDPEVKFNWYVDGVEVHNAKTKPREEQYNSTYRVVSVLTVLHQDWLNGKEYKCKVSNKALPAPIEKTISKAKGQPREPQVYTLPPSRDELTKNQVSLTCLVKGFYPSDIAVEWESNGQPENNYKTTPPVLDSDGSFFLYSKLTVDKSRWQQGNVFSCSVMHEALHNHYTQKSLSLSPGGGGGSGGGGSGGGGSGGGGSGGGGSLQMAGQCSQNEYFDSLLYACIPCQLRCSSNTPPLTCQRYCNASVTNSVKGTNA
For B3, in the test with recombinant human BAFF, the “IC50 (nM) BAFF” value came out at 0.765 nM and the “IC50 BAFF (Δ Parental vTD)” value was determined as 0.8 ratio. In addition, in the test with recombinant human APRIL, the “IC50 (nM) APRIL” value is 0.687 nM and the “IC50 APRIL (Δ Parental vTD)” value was 0.7 ratio.

B4: CTLA-4 92 (G4S)4 BCMA 357 GSG4S Fc (Fc fusion)
chain: KAMHVAQPAVVLASSRGIASFVCEYASPWKATEVRVTVLRQADSQVTEVCAATYMMGSELTFPDDSICTGTSSGNQVNLTIRGLRAMDTGLYICKVEQMYPPPYLLGIGNGTQIYVIDPEPCPDSDGGGGSGGGGSGGGGSGGGGSLQMAGQCSQNEYFDSLLYACIPCQLRCSSNTPPLTCQRYCNASVTNSVKGTNAGSGGGGSEPKSSDKTHTCPPCPAPEAEGAPSVFLFPPKPKDTLMISRTPEVTCVVVDVSHEDPEVKFNWYVDGVEVHNAKTKPREEQYNSTYRVVSVLTVLHQDWLNGKEYKCKVSNKALPAPIEKTISKAKGQPREPQVYTLPPSRDELTKNQVSLTCLVKGFYPSDIAVEWESNGQPENNYKTTPPVLDSDGSFFLYSKLTVDKSRWQQGNVFSCSVMHEALHNHYTQKSLSLSPG
As for B4, in the test with recombinant human BAFF, the “IC50 (nM) BAFF” value was determined as 3.75 nM and the “IC50 BAFF (Δ Parental vTD)” value stood at 3.8 ratio. In addition, in the test with recombinant human APRIL, the “IC50 (nM) APRIL” value came out at 0.63 nM and the “IC50 APRIL (Δ Parental vTD)” value was 0.6 ratio.

B5: CTLA-4 113 GSG4S Fc (G4S)4 TACI 688 (29-110) (Fc fusion)
chain: KAMHVAQPAVVFASSHGIASFVCEYASPWKATEVRVTVLRQADSQVTEVCAATYMTGNELTFLDDSICTGTSSGNQVNLTIQGLRAMDTGLYICKVEQMYPPPYLLGIGNGTQIYVIDPEPCPDSDGSGGGGSEPKSSDKTHTCPPCPAPEAEGAPSVFLFPPKPKDTLMISRTPEVTCVVVDVSHEDPEVKFNWYVDGVEVHNAKTKPREEQYNSTYRVVSVLTVLHQDWLNGKEYKCKVSNKALPAPIEKTISKAKGQPREPQVYTLPPSRDELTKNQVSLTCLVKGFYPSDIAVEWESNGQPENNYKTTPPVLDSDGSFFLYSKLTVDKSRWQQGNVFSCSVMHEALHNHYTQKSLSLSPGGGGGSGGGGSGGGGSGGGGSVAMRSCPEEQYWDPLLGTCMSCKTICNHQSQRTCAAFCRSLSCRKEQGKFYDHLLGDCISCASICGQHPKQCAYFCENKLRS
As to B5, in the test with recombinant human BAFF, the “IC50 (nM) BAFF” value turned out to be 0.566 nM and the “IC50 BAFF (Δ Parental vTD)” value turned out to be 0.4 ratio. In addition, in the test with recombinant human APRIL, the “IC50 (nM) APRIL” value was determined as 8.25 nM and the “IC50 APRIL (Δ Parental vTD)” value came out at 1.4 ratio.

B6: CTLA-4 92 GSG4S Fc (G4S)3 BCMA 357 (Fc fusion)
chain: KAMHVAQPAVVLASSRGIASFVCEYASPWKATEVRVTVLRQADSQVTEVCAATYMMGSELTFPDDSICTGTSSGNQVNLTIRGLRAMDTGLYICKVEQMYPPPYLLGIGNGTQIYVIDPEPCPDSDGSGGGGSEPKSSDKTHTCPPCPAPEAEGAPSVFLFPPKPKDTLMISRTPEVTCVVVDVSHEDPEVKFNWYVDGVEVHNAKTKPREEQYNSTYRVVSVLTVLHQDWLNGKEYKCKVSNKALPAPIEKTISKAKGQPREPQVYTLPPSRDELTKNQVSLTCLVKGFYPSDIAVEWESNGQPENNYKTTPPVLDSDGSFFLYSKLTVDKSRWQQGNVFSCSVMHEALHNHYTQKSLSLSPGGGGGSGGGGSGGGGSLQMAGQCSQNEYFDSLLYACIPCQLRCSSNTPPLTCQRYCNASVTNSVKGTNA
B6: in the test with recombinant human BAFF, the “IC50 (nM) BAFF” value was 0.548 nM and the “IC50 BAFF (Δ Parental vTD)” value came out at 0.6 ratio. For the same molecule, in the test with recombinant human APRIL, the “IC50 (nM) APRIL” value was 0.55 nM and the “IC50 APRIL (Δ Parental vTD)” value stood at 0.5 ratio.

B7: TACI 542 GSG4S Fc (G4S)4 (CTLA-4 186) (Fc fusion)
chain: SLSCRKEEGKFYDHLLQDCISCASICGQHPKQCAYFCENKLRSGSGGGGSEPKSSDKTHTCPPCPAPEAEGAPSVFLFPPKPKDTLMISRTPEVTCVVVDVSHEDPEVKFNWYVDGVEVHNAKTKPREEQYNSTYRVVSVLTVLHQDWLNGKEYKCKVSNKALPAPIEKTISKAKGQPREPQVYTLPPSRDELTKNQVSLTCLVKGFYPSDIAVEWESNGQPENNYKTTPPVLDSDGSFFLYSKLTVDKSRWQQGNVFSCSVMHEALHNHYTQKSLSLSPGGGGGSGGGGSGGGGSGGGGSKAMHVAQPAVVLASSRGIASFVCEYASPWKATEVRVTVLRQADSQVTEVCAATYMMGNELTFLDDSICTGTSSGNQVNLTIQGLRAMDTGLYICKVEQMYPPPYLLGIGNGTQIYVIDPEPCPDSD
As to B7, the “IC50 (nM) BAFF” value in the test with recombinant human BAFF was 0.179 nM. Further, in the test with recombinant human APRIL, the “IC50 (nM) APRIL” value turned out to be 1.2 nM.

B8: BCMA 357 (G4S)3 CTLA-4 92 GSG4S Fc (Fc fusion)
chain: LQMAGQCSQNEYFDSLLYACIPCQLRCSSNTPPLTCQRYCNASVTNSVKGTNAGGGGSGGGGSGGGGSGGGGSKAMHVAQPAVVLASSRGIASFVCEYASPWKATEVRVTVLRQADSQVTEVCAATYMMGSELTFPDDSICTGTSSGNQVNLTIRGLRAMDTGLYICKVEQMYPPPYLLGIGNGTQIYVIDPEPCPDSDGSGGGGSEPKSSDKTHTCPPCPAPEAEGAPSVFLFPPKPKDTLMISRTPEVTCVVVDVSHEDPEVKFNWYVDGVEVHNAKTKPREEQYNSTYRVVSVLTVLHQDWLNGKEYKCKVSNKALPAPIEKTISKAKGQPREPQVYTLPPSRDELTKNQVSLTCLVKGFYPSDIAVEWESNGQPENNYKTTPPVLDSDGSFFLYSKLTVDKSRWQQGNVFSCSVMHEALHNHYTQKSLSLSPG
Consider B8, for which, in the test with recombinant human BAFF, the “IC50 (nM) BAFF” value is 0.396 nM and the “IC50 BAFF (Δ Parental vTD)” value amounted to 0.4 ratio. In addition, in the test with recombinant human APRIL, the “IC50 (nM) APRIL” value worked out at 0.689 nM and the “IC50 APRIL (Δ Parental vTD)” value amounted to 0.7 ratio.

The values are drawn from patent US20230241168A1 (ALPINE IMMUNE SCIENCES, published 2023).
